Common to all, as to experiment: purified protein, by the assay type
Substrate in data set [1]: OC[C@H]1O[C@H](OC[C@H]2OC(O)[C@H](O)[C@@H](O)[C@@H]2O)[C@H](O)[C@@H](O)[C@@H]1O
Substrate in data set [2]: OC[C@H]1O[C@H](O[C@H]2[C@H](O)[C@@H](O)[C@@H](O[C@H]3[C@H](O)[C@@H](O)[C@@H](O[C@H]4[C@H](O)[C@@H](O)[C@@H](O[C@H]5[C@H](O)[C@@H](O)[C@@H](O[C@H]6[C@H](O)[C@@H](O)[C@@H](O[C@H]7[C@H](O)[C@@H](O)C(O)O[C@@H]7CO)O[C@@H]6CO)O[C@@H]5CO)O[C@@H]4CO)O[C@@H]3CO)O[C@@H]2CO)[C@H](O)[C@@H](O)[C@@H]1O
Substrate in data set [3]: OC[C@H]1O[C@H](O[C@H]2[C@H](O)[C@@H](O)[C@H](O)O[C@@H]2CO)[C@H](O)[C@@H](O)[C@@H]1O
[4] abbreviates: other: 45 C., pH 4.5, 0.05M sodium acetate buffer, pH 4.5, 45.0 °C.
Setting [5] is: other: pH 4.4 and 50° C., pH 4.4, 50.0 °C.
Setting [6] is: other: 45 C., pH 4.5, 0.05M sodium acetate buffer.

Broadly, the Km is the concentration of substrate that gives half-maximal velocity. One may read the kcat as the maximal rate divided by the concentration of active sites. The kcat/Km is the turnover number divided by the Michaelis constant.

B1: Aspergillus awamori glucoamylase, wild type (unmutated, expressed in Saccharomyces cerevisiae) (Aspergillus awamori) (protein)
chain: ATLDSWLSNEATVARTAILNNIGADGAWVSGADSGIVVASPSTDNPDYFYTWTRDSGLVLKTLVDLFRNGDTSLLSTIENYISAQAIVQGISNPSGDLSSGAGLGEPKFNVDETAYTGSWGRPQRDGPALRATAMIGFGQWLLDNGYTSTATDIVWPLVRNDLSYVAQYWNQTGYDLWEEVNGSSFFTIAVQHRALVEGSAFATAVGSSCSWCDSQAPEILCYLQSFWTGSFILANFDSSRSGKDANTLLGSIHTFDPEAACDDSTFQPCSPRALANHKEVVDSFRSIYTLNDGLSDSEAVAVGRYPEDTYYNGNPWFLCTLAAAEQLYDALYQWDKQGSLEVTDVSLDFFKALYSDAATGTYSSSSSTYSSIVDAVKTFADGFVSIVETHAASNGSMSEQYDKSDGEQLSARDLTWSYAALLTANNRRNSVVPASWGETSASSVPGTCAATSAIGTYSSVTVTSWPSIVATGGTTTTATPTGSGSVTSTSKTTATASKTSTSTSSTSCTTPTAVAVTFDLTATTTYGENIYLVGSISQLGDWETSDGIALSADKYTSSDPLWYVTVTLPAGESFEYKFIRIESDDSVEWESDPNREYTVPQACGTSTATVTDTWR
Take B1: the Michaelis-Menten constant (Km) in data set [1] (setting [4]) amounted to 30300 µM; in data set [1] (setting [5]), 36000 µM; in data set [2] (setting [4]), 140 µM; in data set [2] (setting [5]), 220 µM; in data set [3] (setting [4]) it was 1400 µM; in data set [3] (setting [5]), 1730 µM. Moreover, the kcat turned out to be 0.34 s⁻¹ in data set [1] (setting [4]); 0.487 ± 0.031 s⁻¹ in data set [1] (setting [5]); 66.2 s⁻¹ in data set [2] (setting [4]); 84 ± 2 s⁻¹ in data set [2] (setting [5]); 9.1 s⁻¹ in data set [3] (setting [4]); 14.4 ± 0.5 s⁻¹ in data set [3] (setting [5]). For the same protein, the catalytic efficiency (kcat/Km) in data set [1] (setting [5]) was determined as 13.5 M⁻¹ s⁻¹; in data set [2] (setting [5]), 390000 M⁻¹ s⁻¹; in data set [3] (setting [5]), 8300 M⁻¹ s⁻¹.

B2: Aspergillus awamori glucoamylase variant Leu177→His (Aspergillus awamori; L201H) (protein)
chain: ATLDSWLSNEATVARTAILNNIGADGAWVSGADSGIVVASPSTDNPDYFYTWTRDSGLVLKTLVDLFRNGDTSLLSTIENYISAQAIVQGISNPSGDLSSGAGLGEPKFNVDETAYTGSWGRPQRDGPALRATAMIGFGQWLLDNGYTSTATDIVWPLVRNDLSYVAQYWNQTGYDHWEEVNGSSFFTIAVQHRALVEGSAFATAVGSSCSWCDSQAPEILCYLQSFWTGSFILANFDSSRSGKDANTLLGSIHTFDPEAACDDSTFQPCSPRALANHKEVVDSFRSIYTLNDGLSDSEAVAVGRYPEDTYYNGNPWFLCTLAAAEQLYDALYQWDKQGSLEVTDVSLDFFKALYSDAATGTYSSSSSTYSSIVDAVKTFADGFVSIVETHAASNGSMSEQYDKSDGEQLSARDLTWSYAALLTANNRRNSVVPASWGETSASSVPGTCAATSAIGTYSSVTVTSWPSIVATGGTTTTATPTGSGSVTSTSKTTATASKTSTSTSSTSCTTPTAVAVTFDLTATTTYGENIYLVGSISQLGDWETSDGIALSADKYTSSDPLWYVTVTLPAGESFEYKFIRIESDDSVEWESDPNREYTVPQACGTSTATVTDTWR
As to B2, in data set [1] (other: pH 4.4 and 50° C.), the Km came out at 49700 µM, the turnover number (kcat) came to 0.0438 ± 0.0018 s⁻¹ and the kcat/Km stood at 0.881 M⁻¹ s⁻¹. Also, in data set [2] (other: pH 4.4 and 50° C.), the Km turned out to be 300 µM, the kcat amounted to 15.9 ± 0.8 s⁻¹ and the kcat/Km stood at 53000 M⁻¹ s⁻¹. Further, in data set [3] (other: pH 4.4 and 50° C.), the Km stood at 5300 µM, the kcat is 2.6 ± 0.1 s⁻¹ and the kcat/Km is 490 M⁻¹ s⁻¹.

B3: Aspergillus awamori glucoamylase variant Trp178→Arg (Aspergillus awamori; W202R) (protein)
chain: ATLDSWLSNEATVARTAILNNIGADGAWVSGADSGIVVASPSTDNPDYFYTWTRDSGLVLKTLVDLFRNGDTSLLSTIENYISAQAIVQGISNPSGDLSSGAGLGEPKFNVDETAYTGSWGRPQRDGPALRATAMIGFGQWLLDNGYTSTATDIVWPLVRNDLSYVAQYWNQTGYDLREEVNGSSFFTIAVQHRALVEGSAFATAVGSSCSWCDSQAPEILCYLQSFWTGSFILANFDSSRSGKDANTLLGSIHTFDPEAACDDSTFQPCSPRALANHKEVVDSFRSIYTLNDGLSDSEAVAVGRYPEDTYYNGNPWFLCTLAAAEQLYDALYQWDKQGSLEVTDVSLDFFKALYSDAATGTYSSSSSTYSSIVDAVKTFADGFVSIVETHAASNGSMSEQYDKSDGEQLSARDLTWSYAALLTANNRRNSVVPASWGETSASSVPGTCAATSAIGTYSSVTVTSWPSIVATGGTTTTATPTGSGSVTSTSKTTATASKTSTSTSSTSCTTPTAVAVTFDLTATTTYGENIYLVGSISQLGDWETSDGIALSADKYTSSDPLWYVTVTLPAGESFEYKFIRIESDDSVEWESDPNREYTVPQACGTSTATVTDTWR
Turning to B3, in data set [1] (other: pH 4.4 and 50° C.), the Km was 73100 µM, the kcat stood at 0.0728 ± 0.0027 s⁻¹ and the kcat/Km was determined as 0.997 M⁻¹ s⁻¹. Also, in data set [2] (other: pH 4.4 and 50° C.), the Km worked out at 260 µM, the catalytic constant (kcat) is 16.6 ± 0.4 s⁻¹ and the kcat/Km was 63000 M⁻¹ s⁻¹. In addition, in data set [3] (other: pH 4.4 and 50° C.), the Km was 1520 µM, the turnover number (kcat) turned out to be 1.86 ± 0.11 s⁻¹ and the kcat/Km came out at 1220 M⁻¹ s⁻¹.

B4: Aspergillus awamori glucoamylase variant Gly183→Lys (Gly→Lys183, G→K183) (Aspergillus awamori; G207K) (protein)
chain: ATLDSWLSNEATVARTAILNNIGADGAWVSGADSGIVVASPSTDNPDYFYTWTRDSGLVLKTLVDLFRNGDTSLLSTIENYISAQAIVQGISNPSGDLSSGAGLGEPKFNVDETAYTGSWGRPQRDGPALRATAMIGFGQWLLDNGYTSTATDIVWPLVRNDLSYVAQYWNQTGYDLWEEVNKSSFFTIAVQHRALVEGSAFATAVGSSCSWCDSQAPEILCYLQSFWTGSFILANFDSSRSGKDANTLLGSIHTFDPEAACDDSTFQPCSPRALANHKEVVDSFRSIYTLNDGLSDSEAVAVGRYPEDTYYNGNPWFLCTLAAAEQLYDALYQWDKQGSLEVTDVSLDFFKALYSDAATGTYSSSSSTYSSIVDAVKTFADGFVSIVETHAASNGSMSEQYDKSDGEQLSARDLTWSYAALLTANNRRNSVVPASWGETSASSVPGTCAATSAIGTYSSVTVTSWPSIVATGGTTTTATPTGSGSVTSTSKTTATASKTSTSTSSTSCTTPTAVAVTFDLTATTTYGENIYLVGSISQLGDWETSDGIALSADKYTSSDPLWYVTVTLPAGESFEYKFIRIESDDSVEWESDPNREYTVPQACGTSTATVTDTWR
B4: the Km was 39000 µM in data set [1] (setting [6]), 140 µM in data set [2] (setting [6]) and 1100 µM in data set [3] (setting [6]).

B5: Aspergillus awamori glucoamylase variant Ser119→Tyr (Ser→Tyr119, S→Y119) (Aspergillus awamori; S143Y) (protein)
chain: ATLDSWLSNEATVARTAILNNIGADGAWVSGADSGIVVASPSTDNPDYFYTWTRDSGLVLKTLVDLFRNGDTSLLSTIENYISAQAIVQGISNPSGDLSSGAGLGEPKFNVDETAYTGYWGRPQRDGPALRATAMIGFGQWLLDNGYTSTATDIVWPLVRNDLSYVAQYWNQTGYDLWEEVNGSSFFTIAVQHRALVEGSAFATAVGSSCSWCDSQAPEILCYLQSFWTGSFILANFDSSRSGKDANTLLGSIHTFDPEAACDDSTFQPCSPRALANHKEVVDSFRSIYTLNDGLSDSEAVAVGRYPEDTYYNGNPWFLCTLAAAEQLYDALYQWDKQGSLEVTDVSLDFFKALYSDAATGTYSSSSSTYSSIVDAVKTFADGFVSIVETHAASNGSMSEQYDKSDGEQLSARDLTWSYAALLTANNRRNSVVPASWGETSASSVPGTCAATSAIGTYSSVTVTSWPSIVATGGTTTTATPTGSGSVTSTSKTTATASKTSTSTSSTSCTTPTAVAVTFDLTATTTYGENIYLVGSISQLGDWETSDGIALSADKYTSSDPLWYVTVTLPAGESFEYKFIRIESDDSVEWESDPNREYTVPQACGTSTATVTDTWR
As to B5, the Km in data set [1] (setting [6]) is 66200 µM; in data set [2] (setting [6]) it was 200 µM; in data set [3] (setting [6]), 1100 µM.

B6: Aspergillus awamori glucoamylase variant Asn182→Ala (Aspergillus awamori; N206A) (protein)
chain: ATLDSWLSNEATVARTAILNNIGADGAWVSGADSGIVVASPSTDNPDYFYTWTRDSGLVLKTLVDLFRNGDTSLLSTIENYISAQAIVQGISNPSGDLSSGAGLGEPKFNVDETAYTGSWGRPQRDGPALRATAMIGFGQWLLDNGYTSTATDIVWPLVRNDLSYVAQYWNQTGYDLWEEVAGSSFFTIAVQHRALVEGSAFATAVGSSCSWCDSQAPEILCYLQSFWTGSFILANFDSSRSGKDANTLLGSIHTFDPEAACDDSTFQPCSPRALANHKEVVDSFRSIYTLNDGLSDSEAVAVGRYPEDTYYNGNPWFLCTLAAAEQLYDALYQWDKQGSLEVTDVSLDFFKALYSDAATGTYSSSSSTYSSIVDAVKTFADGFVSIVETHAASNGSMSEQYDKSDGEQLSARDLTWSYAALLTANNRRNSVVPASWGETSASSVPGTCAATSAIGTYSSVTVTSWPSIVATGGTTTTATPTGSGSVTSTSKTTATASKTSTSTSSTSCTTPTAVAVTFDLTATTTYGENIYLVGSISQLGDWETSDGIALSADKYTSSDPLWYVTVTLPAGESFEYKFIRIESDDSVEWESDPNREYTVPQACGTSTATVTDTWR
B6: the Michaelis-Menten constant (Km) came out at 64300 µM in data set [1] (other: pH 4.4 and 50° C.); 260 µM in data set [2] (other: pH 4.4 and 50° C.); 1380 µM in data set [3] (other: pH 4.4 and 50° C.). The kcat amounted to 0.397 ± 0.019 s⁻¹ in data set [1] (other: pH 4.4 and 50° C.); 65 ± 4 s⁻¹ in data set [2] (other: pH 4.4 and 50° C.); 11.6 ± 0.3 s⁻¹ in data set [3] (other: pH 4.4 and 50° C.). For the same protein, the kcat/Km in data set [1] (other: pH 4.4 and 50° C.) is 6.18 M⁻¹ s⁻¹; in data set [2] (other: pH 4.4 and 50° C.), 250000 M⁻¹ s⁻¹; in data set [3] (other: pH 4.4 and 50° C.), 8400 M⁻¹ s⁻¹.

(Values after patent US5162210A, “Process for enzymatic hydrolysis of starch to glucose” (Iowa State University Research Foundation, priority 1990, dated 1992).)
